In the assay the target is streptavidin, P22629. Nature of the assay: SPR, BIAcore X100, streptavidin on CM5 chip, peptide in solution.
Chain of streptavidin, P22629 (P22629 37-163 limits assumed): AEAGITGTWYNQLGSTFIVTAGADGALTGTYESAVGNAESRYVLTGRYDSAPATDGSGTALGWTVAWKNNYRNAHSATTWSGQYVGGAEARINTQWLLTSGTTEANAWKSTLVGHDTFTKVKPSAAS

In the case of QNDHPQNGGQ (modifications not checked), the dissociation constant (Kd) came out at 10.8 µM.
Turning to H-LYDHPQNGGQ-OH, the Kd was found to be 100 µM.
The value for LYDHPQNGGQ (modifications not checked) was 9.4 µM.
The value for NQPWQ (modifications not checked) [head-to-tail cyclic NQpWQ peptide] was 61.3 µM; that for H-QNDHPQNGGQ-OH was 320 µM.

The values above are taken from US20160367961A1, “METHOD AND COMPOSITION FOR PEPTIDE C[…] PROTEASE TREATMENT” (Roche Sequencing Solutions, Inc., priority 2015, published 2016).
